Data on six molecules can be found in publication PMC7430637.

In assay [1] the target is T1, FAM-H3(1-15)K9me3 peptide (N-terminally fluorescein-labelled).
T1 chain: ARTKQTARKSTGGKA
As to the kind of experiment: fluorescence polarisation; FAM-labelled H3(1-15) peptide, recombinant protein titrated; RT; as described (ref. 28). For orientation: In fluorescence polarisation assays a small probe gives low polarisation when free and higher when bound to something large.

For assay [2], the target named is T2, H3(1-15)K9me3-FAM peptide (C-terminally fluorescein-labelled).
T2 chain: ARTKQTARKSTGGKA
The description is as above.

The target of assay [3] is T3, H3(1-15)unmodified-FAM peptide (C-terminally fluorescein-labelled).
T3 chain: ARTKQTARKSTGGKA
Described as above.

For assay [4], the target named is T4, FAM-H3(1–15)K9me3 peptide.
T4 chain: ARTKQTARKSTGGKA
As to the kind of experiment: fluorescence polarisation; FAM-labelled H3(1–15) peptide, recombinant protein titrated; room temperature; as described in ref. 28.

Assay [5] addresses T4, FAM-H3(1–15)K9me3 peptide. As to the kind of experiment: fluorescence polarization. Conditions: chain shown with the change; read at the highest protein concentration of the titration, about 50 µM on the x axis; parent: est. 0.28; read off a plot.

B1: hTTD-PHD module carrying the nine amino acid insertion of mLinker 2 V1 (domain or fragment)
chain: MWDETELGLYKVNEYVDARDTNMGAWFEAQVVRVTRKAPSRDEPCSSTSRPALEEDVIYHVKYDDYPENGVVQMNSRDVRARARTIIKWQDLEVGQVVMLNYNPDNPKERGFWYDAEISRKRETRTARELYANVVLGDDSLNDCRIIFVDEVFKIERPGEGSPMVDNPMRPPPALRNTGKSGPSCKHCKDDVNRLCRVCACHLCGGRQDPDKQLMCDECDMAFHIYCLDPPLSSVPSEDEWYCPECRNDASEVVLAGE
modifications: not checked
As a reminder, the Kd is the free concentration of one partner at which half of the binding sites on the other are occupied at equilibrium, for simple one-to-one binding. As for B1, the Kd is above 50 µM in assay [1], 6.9 µM in assay [2] and 4.5 µM in assay [3].

B2: hTTD-PHD, mLinker2 V1* (domain or fragment)
chain: MWDETELGLYKVNEYVDARDTNMGAWFEAQVVRVTRKAPSRDEPCSSTSRPALEEDVIYHVKYDDYPENGVVQMNSRDVRARARTIIKWQDLEVGQVVMLNYNPDNPKERGFWYDAEISRKRETRTARELYANVVLGDDSLNDCRIIFVDEVFKIERPGEGSPMVDNPMRPPPALRNTGKSGPSCKHCKDDVNRLCRVCACHLCGGRQDPDKQLMCDECDMAFHIYCLDPPLSSVPSEDEWYCPECRNDASEVVLAGE
modifications: not checked
As for B2, the Kd in assay [4] was above 100 µM.

B3: hTTD-PHD (domain or fragment)
chain: MWDETELGLYKVNEYVDARDTNMGAWFEAQVVRVTRKAPSRDEPCSSTSRPALEEDVIYHVKYDDYPENGVVQMNSRDVRARARTIIKWQDLEVGQVVMLNYNPDNPKERGFWYDAEISRKRETRTARELYANVVLGDDSLNDCRIIFVDEVFKIERPGEGSPMVDNPMRRKSGPSCKHCKDDVNRLCRVCACHLCGGRQDPDKQLMCDECDMAFHIYCLDPPLSSVPSEDEWYCPECRND
modifications: not checked
With B3, the Kd in assay [4] stood at 16.2 µM.

B4: mTTD-PHD V1 P293A; P294A; P295A (protein)
chain: VWEDTDLGLYKVNEYVDVRDNIFGAWFEAQVVQVQKRALSEDEPCSSSAVKTSEDDIMYHVKYDDYPEHGVDIVKAKNVRARARTVIPWENLEVGQVVMANYNVDYPRKRGFWYDVEICRKRQTRTARELYGNIRLLNDSQLNNCRIMFVDEVLMIELPKERRPLIASPSQAAAALRNTGKSGPSCRFCKDDENKPCRKCACHVCGGREAPEKQLLCDECDMAFHLYCLKPPLTSVPPEPEWYCPSCRTDSSEVVQAGE
On to B4, for which the response (fraction bound) in assay [5] came out at 0.87.

B5: mTTD-PHD V1 R298A (protein)
chain: VWEDTDLGLYKVNEYVDVRDNIFGAWFEAQVVQVQKRALSEDEPCSSSAVKTSEDDIMYHVKYDDYPEHGVDIVKAKNVRARARTVIPWENLEVGQVVMANYNVDYPRKRGFWYDVEICRKRQTRTARELYGNIRLLNDSQLNNCRIMFVDEVLMIELPKERRPLIASPSQPPPALANTGKSGPSCRFCKDDENKPCRKCACHVCGGREAPEKQLLCDECDMAFHLYCLKPPLTSVPPEPEWYCPSCRTDSSEVVQAGE
Regarding B5, in assay [5], the response (fraction bound) was determined as 0.97.

B6: mTTD-PHD V1 K302A; S303A (protein)
chain: VWEDTDLGLYKVNEYVDVRDNIFGAWFEAQVVQVQKRALSEDEPCSSSAVKTSEDDIMYHVKYDDYPEHGVDIVKAKNVRARARTVIPWENLEVGQVVMANYNVDYPRKRGFWYDVEICRKRQTRTARELYGNIRLLNDSQLNNCRIMFVDEVLMIELPKERRPLIASPSQPPPALRNTGAAGPSCRFCKDDENKPCRKCACHVCGGREAPEKQLLCDECDMAFHLYCLKPPLTSVPPEPEWYCPSCRTDSSEVVQAGE
Take B6: in assay [5], the response (fraction bound) came to 0.2.
